The values below come from patent publication US20170355769A1 (AbbVie / Abbott, published 2017).

The target of test [1] is T1, Human full length B7-H3 (human, UniProt Q5ZPR3 29-534).
T1 construct: On 3T12 fibroblasts expressing full length human B7-H3 or on NCI-H1650 cells; signal peptide residues 1-28 stated; also called huB7-H3; CD276
T1 sequence: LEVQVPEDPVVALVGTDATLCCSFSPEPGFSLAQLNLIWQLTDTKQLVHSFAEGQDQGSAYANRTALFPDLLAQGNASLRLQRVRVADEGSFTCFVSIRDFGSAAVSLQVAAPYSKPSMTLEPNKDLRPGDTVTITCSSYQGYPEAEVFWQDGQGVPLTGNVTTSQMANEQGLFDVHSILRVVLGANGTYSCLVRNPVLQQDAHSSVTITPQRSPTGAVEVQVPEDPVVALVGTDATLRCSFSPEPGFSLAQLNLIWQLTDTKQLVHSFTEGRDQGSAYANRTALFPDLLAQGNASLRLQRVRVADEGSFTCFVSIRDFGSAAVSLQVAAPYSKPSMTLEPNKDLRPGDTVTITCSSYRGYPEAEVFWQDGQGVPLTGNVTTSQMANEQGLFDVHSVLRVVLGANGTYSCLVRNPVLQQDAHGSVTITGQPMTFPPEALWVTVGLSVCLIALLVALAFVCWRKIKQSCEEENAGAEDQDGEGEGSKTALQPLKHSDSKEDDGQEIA
Briefly: FACS, 3T12 transfectants.

Test [2] concerns the target T2, Cynomolgous B7-H3 on cells (cynomolgus).
T2 construct: whole, on cells; also called cyB7-H3; cyno B7-H3
Briefly: FACS, 3T12 transfectants.

For test [3], the target named is T3, hB7-H3 (ELISA antigen of Tables 17 and 20) (human, UniProt Q5ZPR3 29-466, limits assumed).
T3 sequence: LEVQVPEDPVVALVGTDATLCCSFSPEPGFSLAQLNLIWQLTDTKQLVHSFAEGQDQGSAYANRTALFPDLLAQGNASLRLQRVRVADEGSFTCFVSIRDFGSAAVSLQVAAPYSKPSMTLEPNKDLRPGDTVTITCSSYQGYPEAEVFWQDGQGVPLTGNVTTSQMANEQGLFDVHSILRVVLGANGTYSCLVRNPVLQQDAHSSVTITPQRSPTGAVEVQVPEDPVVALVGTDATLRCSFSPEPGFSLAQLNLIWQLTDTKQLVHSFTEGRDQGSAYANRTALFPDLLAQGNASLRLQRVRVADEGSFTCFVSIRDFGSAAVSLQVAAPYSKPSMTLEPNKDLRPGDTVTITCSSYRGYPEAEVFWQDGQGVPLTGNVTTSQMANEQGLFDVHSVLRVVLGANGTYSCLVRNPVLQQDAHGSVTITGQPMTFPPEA
Briefly: ELISA.

The target of test [4] is T1, Human full length B7-H3. Put plainly: cell-based or functional assay.
In test [5] the target is T1, Human full length B7-H3. Briefly: FACS (Example 6 method). Here is the method:
Cells were harvested from flasks when approximately 80% confluent using Gibco® Cell Dissociation Buffer. Cells were washed once in PBS/1% FBS (FACS buffer) then resuspended at 2.5×10⁶ cells/mL in FACS buffer. 100 μL of cells/well were added to a round bottom 96-well plate. 10 μL of a 10× concentration of mAb/ADC (final concentrations are indicated the figures). Wells were washed twice with FACS buffer and resuspended in 50 μL of secondary Ab (AlexaFluor 488) diluted in FACS buffer. The plate was incubated at 4° C. for one hour and washed twice with FACS buffer. Cells were resuspended in 100 μL of PBS/1% formaldehyde and analyzed on a Becton Dickinson LSRII flow cytometer. Data was analyzed using WinList flow cytometry analysis software.
These variants were further characterized for binding by SPR and as ADCs conjugated to the Bcl-xL inhibitor synthon (linker warhead) CZ. […] An ADC comprising chAb3 conjugated to synthon CZ was used as a control.

The target of test [6] is T1, Human full length B7-H3. Put plainly: FACS, 3T12 transfectants. This is another data set of the same source.
In test [7] the target is T1, Human full length B7-H3. Put plainly: FACS.

B1: huAb3v2.6-CZ (antibody, human IgG1, kappa, L234A L235A, V domains shown)
VH: EVQLVQSGAEVKKPGSSVKVSCKASGYTFSSYWMHWVRQAPGQGLEWIGLIHPESGSTNYNEMFKNRATLTVDRSTSTAYMELSSLRSEDTAVYYCAGGGRLYFDYWGQGTTVTVSS
VL: DIVMTQSPLSLPVTPGEPASISCRSSQSLVHSNQDTYLRWYLQKPGQSPQLLIYKVSNRFSGVPDRFSGSGSGTDFTLKISRVEAEDVGVYYCSQSTHVPYTFGGGTKVEIKR
modifications: synthon CZ on reduced interchain Cys
Consider B1, for which the concentration for a half-maximal effect (EC50) is 5.64 nM in the test with Human full length B7-H3 [1], 3.31 nM in test [2] and 0.09 nM in test [3]. In the test with Human full length B7-H3 [4], the “EC50 nM H1650 (tumor cell cytotoxicity)” value was determined as 0.4 nM.

B2: huAb3v2.2-CZ (antibody, V domains shown)
VH: EVQLVQSGAEVKKPGSSVKVSCKASGYTFSSYWMHWVRQAPGQGLEWIGLIHPWSGSTNYNEMFKNRATLTVDRSTSTAYMELSSLRSEDTAVYYCAGGGRLYFDYWGQGTTVTVSS
VL: DIVMTQSPLSLPVTPGEPASISCRSSQSLVHSNRDTYLRWYLQKPGQSPQLLIYKVSNRFSGVPDRFSGSGSGTDFTLKISRVEAEDVGVYYCSQSTHVPYTFGGGTKVEIK
modifications: synthon CZ on reduced interchain Cys
notes: ADC, DAR 0.7
Consider B2, for which the concentration for a half-maximal effect (EC50) is 5.29 nM with Human full length B7-H3 [1], 3.68 nM in test [2] and 0.1 nM in test [3].

B3: huAb3v2-CZ (antibody, V domains shown)
VH: EVQLVQSGAEVKKPGSSVKVSCKASGYTFSSYWMHWVRQAPGQGLEWIGLIHPDSGSTNYNEMFKNRATLTVDRSTSTAYMELSSLRSEDTAVYYCAGGGRLYFDYWGQGTTVTVSS
VL: DIVMTQSPLSLPVTPGEPASISCRSSQSLVHSNGDTYLRWYLQKPGQSPQLLIYKVSNRFSGVPDRFSGSGSGTDFTLKISRVEAEDVGVYYCSQSTHVPYTFGGGTKVEIK
modifications: synthon CZ on reduced interchain Cys
In the case of B3, the concentration giving a half-maximal response (EC50) stood at 5.11 nM with Human full length B7-H3 [1], 2.87 nM in test [2], 0.44 nM in test [3] and 0.73 nM with Human full length B7-H3 [5].

B4: huAb3v2.8 (antibody, V domains shown)
VH: EVQLVQSGAEVKKPGSSVKVSCKASGYTFSSYWMHWVRQAPGQGLEWIGLIHPISGSTNYNEMFKNRATLTVDRSTSTAYMELSSLRSEDTAVYYCAGGGRLYFDYWGQGTTVTVSS
VL: DIVMTQSPLSLPVTPGEPASISCRSSQSLVHSNRDTYLRWYLQKPGQSPQLLIYKVSNRFSGVPDRFSGSGSGTDFTLKISRVEAEDVGVYYCSQSTHVPYTFGGGTKVEIK
notes: humanized IgG
In the case of B4, the binding result with Human full length B7-H3 [6] is “binds”.

B5: huAb3v2.9-CZ (antibody, V domains shown)
VH: EVQLVQSGAEVKKPGSSVKVSCKASGYTFSSYWMHWVRQAPGQGLEWIGLIHPISGSTNYNEMFKNRATLTVDRSTSTAYMELSSLRSEDTAVYYCAGGGRLYFDYWGQGTTVTVSS
VL: DIVMTQSPLSLPVTPGEPASISCRSSQSLVHSNQDTYLRWYLQKPGQSPQLLIYKVSNRFSGVPDRFSGSGSGTDFTLKISRVEAEDVGVYYCSQSTHVPYTFGGGTKVEIK
modifications: synthon CZ on reduced interchain Cys
notes: ADC, DAR 2.7
On to B5, for which the EC50 with Human full length B7-H3 [1] was 6.16 nM; in test [2], 4.64 nM; in test [3], 0.16 nM.

B6: huAb3v2.8-CZ (antibody, V domains shown)
VH: EVQLVQSGAEVKKPGSSVKVSCKASGYTFSSYWMHWVRQAPGQGLEWIGLIHPISGSTNYNEMFKNRATLTVDRSTSTAYMELSSLRSEDTAVYYCAGGGRLYFDYWGQGTTVTVSS
VL: DIVMTQSPLSLPVTPGEPASISCRSSQSLVHSNRDTYLRWYLQKPGQSPQLLIYKVSNRFSGVPDRFSGSGSGTDFTLKISRVEAEDVGVYYCSQSTHVPYTFGGGTKVEIK
modifications: synthon CZ on reduced interchain Cys
notes: ADC, DAR 2.0
B6: the EC50 with Human full length B7-H3 [1] was determined as 3.94 nM; in test [2] it was 3.01 nM; in test [3], 0.14 nM.

B7: huAb3v2.3 (antibody, V domains shown)
VH: EVQLVQSGAEVKKPGSSVKVSCKASGYTFSSYWMHWVRQAPGQGLEWIGLIHPWSGSTNYNEMFKNRATLTVDRSTSTAYMELSSLRSEDTAVYYCAGGGRLYFDYWGQGTTVTVSS
VL: DIVMTQSPLSLPVTPGEPASISCRSSQSLVHSNQDTYLRWYLQKPGQSPQLLIYKVSNRFSGVPDRFSGSGSGTDFTLKISRVEAEDVGVYYCSQSTHVPYTFGGGTKVEIK
notes: humanized IgG
In the case of B7, the binding result with Human full length B7-H3 [6] is “binds”.

B8: huAb3v2.2 (antibody, V domains shown)
VH: EVQLVQSGAEVKKPGSSVKVSCKASGYTFSSYWMHWVRQAPGQGLEWIGLIHPWSGSTNYNEMFKNRATLTVDRSTSTAYMELSSLRSEDTAVYYCAGGGRLYFDYWGQGTTVTVSS
VL: DIVMTQSPLSLPVTPGEPASISCRSSQSLVHSNRDTYLRWYLQKPGQSPQLLIYKVSNRFSGVPDRFSGSGSGTDFTLKISRVEAEDVGVYYCSQSTHVPYTFGGGTKVEIK
notes: humanized IgG
For the molecule B8, the binding result with Human full length B7-H3 [6] was “binds”.

B9: huAb13v9 (antibody, V domains shown)
VH: EVQLQESGPGLVKPSETLSLTCAVSGYSITSGYSWHWIRQPPGNGLEWMGYIHSSGSTNYNPSLKSRITISRDTSKNQFSLKLSSVTAADTAVYYCARYDDYFEYWGQGTTVTVSS
VL: DIQMTQSPSSLSASVGDRVTITCKASQNVGFNVAWYQQKPGKAPKLLIYSASYRYSGVPSRFSGSGSGTDFTLTISSLQPEDFATYFCQQYNWYPFTFGQGTKLEIK
notes: humanized IgG
For the molecule B9, the binding result with Human full length B7-H3 [7] is recorded as “no binding”.

B10: huAb13v3 (antibody, V domains shown)
VH: EVQLQESGPGLVKPSETLSLTCAVSGYSITSGYSWHWIRQPPGKGLEWIGYIHSSGSTNYNPSLKSRVTISVDTSKNQFSLKLSSVTAADTAVYYCARYDDYFEYWGQGTTVTVSS
VL: DIQMTQSPSSLSASVGDRVTITCKASQNVGFNVAWYQQKPGKSPKALIYSASYRYSGVPSRFSGSGSGTDFTLTISSLQPEDFAEYFCQQYNWYPFTFGQGTKLEIK
notes: humanized IgG
Consider B10, for which the binding result in the test with Human full length B7-H3 [7] is listed as “no binding”.

B11: huAb13v7 (antibody, V domains shown)
VH: EVQLQESGPGLVKPSETLSLTCAVSGYSITSGYSWHWIRQPPGNGLEWMGYIHSSGSTNYNPSLKSRITISRDTSKNQFSLKLSSVTAADTAVYYCARYDDYFEYWGQGTTVTVSS
VL: DIQMTQSPSSLSASVGDRVTITCKASQNVGFNVAWYQQKPGKAPKLLIYSASYRYSGVPSRFSGSGSGTDFTLTISSLQPEDFATYYCQQYNWYPFTFGQGTKLEIK
notes: humanized IgG
As for B11, in the test with Human full length B7-H3 [7], the binding result is “no binding”.

B12: huAb13v2 (antibody, V domains shown)
VH: EVQLQESGPGLVKPSETLSLTCAVSGYSITSGYSWHWIRQPPGKGLEWIGYIHSSGSTNYNPSLKSRVTISVDTSKNQFSLKLSSVTAADTAVYYCARYDDYFEYWGQGTTVTVSS
VL: DIQMTQSPSSLSASVGDRVTITCKASQNVGFNVAWYQQKPGKAPKLLIYSASYRYSGVPSRFSGSGSGTDFTLTISSLQPEDFATYYCQQYNWYPFTFGQGTKLEIK
notes: humanized IgG
As for B12, in the test with Human full length B7-H3 [7], the binding result is “no binding”.

B13: huAb13v4 (antibody, V domains shown)
VH: EVQLQESGPGLVKPSETLSLTCAVSGYSITSGYSWHWIRQPPGKGLEWIGYIHSSGSTNYNPSLKSRVTISVDTSKNQFSLKLSSVTAADTAVYYCARYDDYFEYWGQGTTVTVSS
VL: DIQMTQSPSSLSASVGDRVTITCKASQNVGFNVAWYQQKPGKAPKLLIYSASYRYSGVPSRFSGSGSGTDFTLTISSLQPEDFATYFCQQYNWYPFTFGQGTKLEIK
notes: humanized IgG
As for B13, in the test with Human full length B7-H3 [7], the binding result is reported as “no binding”.

B14: huAb13v8 (antibody, V domains shown)
VH: EVQLQESGPGLVKPSETLSLTCAVSGYSITSGYSWHWIRQPPGNGLEWMGYIHSSGSTNYNPSLKSRITISRDTSKNQFSLKLSSVTAADTAVYYCARYDDYFEYWGQGTTVTVSS
VL: DIQMTQSPSSLSASVGDRVTITCKASQNVGFNVAWYQQKPGKSPKALIYSASYRYSGVPSRFSGSGSGTDFTLTISSLQPEDFAEYFCQQYNWYPFTFGQGTKLEIK
notes: humanized IgG
Regarding B14, the binding result with Human full length B7-H3 [7] was “no binding”.
